Experimental data: patent US20170355757A1 (Regeneron, published 2017)
Residue numbers refer to the chain shown, from its start. Names may count otherwise.

Experiments:
[1] = target: T1, Human C5 (human, UniProt P01031 19-1676); test: SPR, mAb captured by anti-hFc, 25C
T1 construct: The natural protein has a beta and an alpha chain; also called complement factor 5; complement component 5
Method: (§1) Equilibrium dissociation constants (KD values) for C5 binding to purified anti-C5 antibodies were determined using a real-time surface plasmon resonance biosensor assay on a Biacore T200 instrument. The Biacore sensor surface was derivatized by amine coupling with a monoclonal mouse anti-human Fc antibody (GE Healthcare, # BR-1008-39) to capture anti-C5 antibodies expressed with human Fc constant regions. Biacore binding studies were conducted in HBST running buffer (0.01M HEPES pH 7.4, 0.15M NaCl, 3 mM EDTA, 0.05% v/v Surfactant P20).
(§2) Human C5 was obtained from a commercial source (EMD). Other C5 reagents were expressed with a C-terminal myc-myc-hexahistidine tag (subsequently referred to as C5-mmh). […] Association of all the C5 reagents to each of the captured monoclonal antibodies was monitored for 3 minutes and their dissociation in HBST running buffer was monitored for 8 minutes. All the binding kinetics experiments were performed at either 25° C. or 37° C. Kinetic association (kₐ) and dissociation (kd) rate constants were determined by fitting the real-time sensorgrams to a 1:1 binding model using Scrubber 2.0c curve fitting software. Binding dissociation equilibrium constants (KD) and dissociative half-lives (t %) were calculated from the kinetic rate constants as: KD (M)=kd/kₐ and t_{1/2} (min)=In2/(60×kd)

[2] = target: T2, monkey C5-mmh (monkey, UniProt P01031 19-1676 (human entry), limits assumed); test: SPR, mAb captured by anti-hFc, 25C
T2 construct: Expressed with a C-terminal myc-myc-hexahistidine tag
T2 chain: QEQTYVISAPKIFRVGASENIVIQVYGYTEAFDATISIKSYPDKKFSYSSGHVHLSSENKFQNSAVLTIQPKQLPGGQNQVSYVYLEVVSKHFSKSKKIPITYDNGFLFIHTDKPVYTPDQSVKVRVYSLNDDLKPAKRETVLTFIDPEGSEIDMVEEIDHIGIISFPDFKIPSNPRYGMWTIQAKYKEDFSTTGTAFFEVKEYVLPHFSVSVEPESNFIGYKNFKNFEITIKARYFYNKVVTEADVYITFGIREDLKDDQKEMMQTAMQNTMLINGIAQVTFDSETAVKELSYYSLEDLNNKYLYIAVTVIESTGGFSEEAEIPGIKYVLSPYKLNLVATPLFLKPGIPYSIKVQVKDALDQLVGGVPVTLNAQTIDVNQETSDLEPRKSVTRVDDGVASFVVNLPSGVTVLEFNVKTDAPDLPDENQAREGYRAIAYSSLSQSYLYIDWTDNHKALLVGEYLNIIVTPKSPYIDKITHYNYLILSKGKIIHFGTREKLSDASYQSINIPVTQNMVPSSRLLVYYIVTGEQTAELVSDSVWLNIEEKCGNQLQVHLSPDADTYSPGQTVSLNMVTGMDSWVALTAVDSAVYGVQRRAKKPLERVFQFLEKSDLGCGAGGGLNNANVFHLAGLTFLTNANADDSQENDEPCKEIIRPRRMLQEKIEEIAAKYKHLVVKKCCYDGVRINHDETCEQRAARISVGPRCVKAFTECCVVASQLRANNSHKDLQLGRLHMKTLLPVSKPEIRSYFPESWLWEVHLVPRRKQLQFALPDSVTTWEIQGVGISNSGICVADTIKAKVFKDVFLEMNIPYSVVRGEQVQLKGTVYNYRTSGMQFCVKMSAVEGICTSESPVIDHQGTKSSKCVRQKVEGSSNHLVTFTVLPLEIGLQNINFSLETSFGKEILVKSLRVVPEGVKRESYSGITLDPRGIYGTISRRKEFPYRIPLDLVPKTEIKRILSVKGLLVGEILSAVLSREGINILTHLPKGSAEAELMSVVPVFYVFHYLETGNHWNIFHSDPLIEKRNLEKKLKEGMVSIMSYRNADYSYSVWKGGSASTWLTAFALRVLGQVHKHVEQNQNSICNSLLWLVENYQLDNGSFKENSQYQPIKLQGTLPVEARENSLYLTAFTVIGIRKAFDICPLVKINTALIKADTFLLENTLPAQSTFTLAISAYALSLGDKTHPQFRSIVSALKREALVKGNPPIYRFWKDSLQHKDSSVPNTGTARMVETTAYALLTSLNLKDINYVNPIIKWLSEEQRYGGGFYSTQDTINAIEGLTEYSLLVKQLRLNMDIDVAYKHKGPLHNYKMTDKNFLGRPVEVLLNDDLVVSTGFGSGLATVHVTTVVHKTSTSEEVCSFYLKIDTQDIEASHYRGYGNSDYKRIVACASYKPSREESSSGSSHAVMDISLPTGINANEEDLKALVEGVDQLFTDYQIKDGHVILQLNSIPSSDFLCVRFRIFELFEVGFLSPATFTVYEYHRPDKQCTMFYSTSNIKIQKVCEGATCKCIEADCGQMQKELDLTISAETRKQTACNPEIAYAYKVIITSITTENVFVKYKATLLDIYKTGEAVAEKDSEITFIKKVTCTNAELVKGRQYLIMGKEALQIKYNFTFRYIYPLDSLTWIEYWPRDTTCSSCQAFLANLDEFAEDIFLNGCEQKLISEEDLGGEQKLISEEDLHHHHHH
Method: as §1, §2

[3] = target: T1, Human C5; test: SPR, mAb captured by anti-hFc, 37C
Method: as §1, §2

B1: H4H12166P2 (antibody, human IgG4, V domains shown)
VH: QVQLQESGPGLVKPSETLSLTCTVSGDSVSSSYWTWIRQPPGKGLEWIGYIYYSGSSNYNPSLKSRATISVDTSKNQFSLKLSSVTAADTAVYYCAREGNVDTTMIFDYWGQGTLVTVSS
VL: AIQMTQSPSSLSASVGDRVTITCRASQGIRNDLGWYQQKPGKAPKLLIYAASSLQSGVPSRFAGRGSGTDFTLTISSLQPEDFATYYCHQDFNYPWTFGQGTKVEIK
notes: human IgG4 Fc with S108P hinge mutation
100 nM Human C5 Bound (RU) [1]: 95 RU
Kd [1]: 0.438 nM
koff [1]: 0.000361 s⁻¹
kon [1]: 826000 M⁻¹ s⁻¹
t½ [1]: 32 min
100 nM monkey C5-mmh Bound (RU) [2]: 71 RU
Kd [2]: 10.5 nM
koff [2]: 0.00316 s⁻¹
kon [2]: 300000 M⁻¹ s⁻¹
t1/2 [2]: 4 min
100 nM Human C5 Bound (RU) [3]: 110 RU
Kd [3]: 1.29 nM
koff [3]: 0.00123 s⁻¹
kon [3]: 950000 M⁻¹ s⁻¹
t½ [3]: 9 min

B2: H4H12166P5 (antibody, human IgG4, V domains shown)
VH: B1 VH with F107H
VL: B1 VL with H89L
notes: as for B1
100 nM Human C5 Bound (RU) [1]: 110 RU
Kd [1]: 1.15 nM
koff [1]: 0.000328 s⁻¹
kon [1]: 285000 M⁻¹ s⁻¹
t½ [1]: 35 min
100 nM monkey C5-mmh Bound (RU) [2]: 56 RU
Kd [2]: 24 nM
koff [2]: 0.00346 s⁻¹
kon [2]: 144000 M⁻¹ s⁻¹
t1/2 [2]: 3 min
100 nM Human C5 Bound (RU) [3]: 129 RU
Kd [3]: 2.77 nM
koff [3]: 0.00122 s⁻¹
kon [3]: 440000 M⁻¹ s⁻¹
t½ [3]: 9 min

B3: H4H12166P4 (antibody, human IgG4, V domains shown)
VH: B1 VH
VL: B1 VL with H89L, T97H
notes: as for B1
100 nM Human C5 Bound (RU) [1]: 92 RU
Kd [1]: 0.395 nM
koff [1]: 0.000176 s⁻¹
kon [1]: 446000 M⁻¹ s⁻¹
t½ [1]: 66 min
100 nM monkey C5-mmh Bound (RU) [2]: 69 RU
Kd [2]: 8.5 nM
koff [2]: 0.00178 s⁻¹
kon [2]: 210000 M⁻¹ s⁻¹
t1/2 [2]: 6 min
100 nM Human C5 Bound (RU) [3]: 108 RU
Kd [3]: 0.93 nM
koff [3]: 0.000469 s⁻¹
kon [3]: 505000 M⁻¹ s⁻¹
t½ [3]: 25 min

B4: H4H12166P9 (antibody, human IgG4, V domains shown)
VH: B1 VH with T103H
VL: B1 VL with H89L, T97H
notes: as for B1
100 nM Human C5 Bound (RU) [1]: 100 RU
Kd [1]: 0.794 nM
koff [1]: 0.000264 s⁻¹
kon [1]: 332000 M⁻¹ s⁻¹
t½ [1]: 44 min
100 nM monkey C5-mmh Bound (RU) [2]: 55 RU
Kd [2]: 18.7 nM
koff [2]: 0.00318 s⁻¹
kon [2]: 170000 M⁻¹ s⁻¹
t1/2 [2]: 4 min
100 nM Human C5 Bound (RU) [3]: 122 RU
Kd [3]: 1.7 nM
koff [3]: 0.000639 s⁻¹
kon [3]: 375000 M⁻¹ s⁻¹
t½ [3]: 18 min

B5: H4H12166P10 (antibody, human IgG4, V domains shown)
VH: B1 VH with F107H
VL: B1 VL with H89L, T97H
notes: as for B1
100 nM Human C5 Bound (RU) [1]: 69 RU
Kd [1]: 8.38 nM
koff [1]: 0.00132 s⁻¹
kon [1]: 157000 M⁻¹ s⁻¹
t½ [1]: 9 min
100 nM monkey C5-mmh Bound (RU) [2]: 15 RU
Kd [2]: 64.4 nM
koff [2]: 0.00616 s⁻¹
kon [2]: 95600 M⁻¹ s⁻¹
t1/2 [2]: 2 min
100 nM Human C5 Bound (RU) [3]: 82 RU
Kd [3]: 13.8 nM
koff [3]: 0.00314 s⁻¹
kon [3]: 227000 M⁻¹ s⁻¹
t½ [3]: 4 min

B6: H4H12166P7 (antibody, human IgG4, V domains shown)
VH: B1 VH with G99H
VL: B1 VL with H89L, T97H
notes: as for B1
100 nM Human C5 Bound (RU) [1]: 92 RU
Kd [1]: 3.67 nM
koff [1]: 0.00101 s⁻¹
kon [1]: 274000 M⁻¹ s⁻¹
t½ [1]: 11 min
100 nM monkey C5-mmh Bound (RU) [2]: 36 RU
Kd [2]: 46.5 nM
koff [2]: 0.00633 s⁻¹
kon [2]: 136000 M⁻¹ s⁻¹
t1/2 [2]: 2 min
100 nM Human C5 Bound (RU) [3]: 105 RU
Kd [3]: 7.39 nM
koff [3]: 0.00258 s⁻¹
kon [3]: 349000 M⁻¹ s⁻¹
t½ [3]: 4 min

B7: H4H12166P8 (antibody, human IgG4, V domains shown)
VH: B1 VH with T103H
VL: B1 VL
notes: as for B1
100 nM Human C5 Bound (RU) [1]: 91 RU
Kd [1]: 1.42 nM
koff [1]: 0.000686 s⁻¹
kon [1]: 484000 M⁻¹ s⁻¹
t½ [1]: 17 min
100 nM monkey C5-mmh Bound (RU) [2]: 47 RU
Kd [2]: 21.6 nM
koff [2]: 0.00499 s⁻¹
kon [2]: 231000 M⁻¹ s⁻¹
t1/2 [2]: 2 min
100 nM Human C5 Bound (RU) [3]: 98 RU
Kd [3]: 3.1 nM
koff [3]: 0.00209 s⁻¹
kon [3]: 675000 M⁻¹ s⁻¹
t½ [3]: 6 min

B8: H4H12166P6 (antibody, human IgG4, V domains shown)
VH: B1 VH with T103H
VL: B1 VL with H89L
notes: as for B1
100 nM Human C5 Bound (RU) [1]: 131 RU
Kd [1]: 0.375 nM
koff [1]: 0.000184 s⁻¹
kon [1]: 489000 M⁻¹ s⁻¹
t½ [1]: 63 min
100 nM monkey C5-mmh Bound (RU) [2]: 94 RU
Kd [2]: 11.1 nM
koff [2]: 0.00266 s⁻¹
kon [2]: 239000 M⁻¹ s⁻¹
t1/2 [2]: 4 min
100 nM Human C5 Bound (RU) [3]: 157 RU
Kd [3]: 0.875 nM
koff [3]: 0.000474 s⁻¹
kon [3]: 542000 M⁻¹ s⁻¹
t½ [3]: 24 min
